Measurements: patent publication US20140322220A1 (Bayer, published 2014)
Numbered stars: 1 amine (or outer) side, 2 acyl side, 3 side chain; on linkers, the order of the positions; unused ones are H or OH. Square brackets hold non-standard residues; d marks the D form. Ends that are not written are not given here. * marks the point of attachment. Biotin = O=C1N[C@H]2[C@H](CS[C@H]2CCCCC(=O)*)N1; Ttds = O=C(CCC(=O)[*:2])NCCCOCCOCCOCCCN[*:1]

Legend:
[1] = biological target: T1, mutated human FGFR2 on MFE-296 cells (human, UniProt P21802 22-821); assay: FACS, 5 ug/ml, MFE296 cells
T1 construct: whole, on cells
Experimental: (§1) To determine the binding characteristics of the anti-FGFR2 antibodies on mouse, rat and human cancer cell lines, binding was tested by flow cytometry to a panel of cell lines. Adherent cells were washed twice with PBS (without Ca and Mg) and detached by enzyme-free PBS based cell dissociation buffer (Invitrogen). Cells were suspended at approximately 10⁵ cells/well in FACS buffer (PBS without Ca/Mg, Biochrom containing 3% FCS, Biochrom). Cells were centrifuged (250 g, 5 min, 4° C.) and supernatant discarded. Cell were resuspended in dilutions of the antibodies of interest (5 μg/ml in 80 μl if not indicated otherwise) in FACS buffer, and incubated on ice for 1 h. […] After incubation for 1 h on ice cells were again washed with cold FACS buffer, resuspended in 100 μl FACS buffer and analyzed by flow cytometry using a FACS-Array (BD Biosciences). Results are calculated as Geo Mean of the detection by the antibody of interest subtracted by background fluorescence as measured by detection with the secondary antibody alone.

rat FGFR2 on RUCA cells = biological target: T2, rat FGFR2 on RUCA cells (rat, UniProt F1LNW0 41-840); assay: FACS, 5 ug/ml, RUCA cells
T2 construct: whole, on cells
Experimental: as §1

[2] = biological target: T3, RPSFSLVEDTTLEPEG-Ttds-Lys(Biotin) (human); assay: peptide binding ELISA, antibody captured by anti-human IgG Fc, biotinylated peptide titrated
T3 construct: Synthesized by JPT Peptide Technology
T3 peptide: RPSFSLVEDTTLEPEG[Ttds]K(Biotin)
Description: (§2) Two different types of ELISA were used to determine the binding improvement of mutated variants: a) Peptide Binding ELISA: a synthetic peptide comprising the amino acid sequence of the epitope linked C-terminally to a biotinylated lysine […]-Ttds-Lys(Biotin) (peptide sequence derived from SEQ ID NO:63, synthesized by JPT Peptide Technology GmbH, Berlin, Germany), and b) Recombinant Protein Binding ELISA: recombinant human FGFR2 (DNA sequence of human FGFR2 (NP 000132.3) Met 1-Glu 377, fused with a polyhistidine tag at the C-terminus; #10824-1-1081-1, Sin θ Biological Inc., Beijing, China).
(§3) Briefly, in both ELISA formats MTP plates (384 well Maxisorp, Nunc) were coated with 20 μl, anti-human IgG Fc specific (#12136; sigma) at 2.2 μg/ml for 2.5 h at 37° C. in coating buffer (#121125 Candor Bioscience GmbH). […] Anti-FGFR2 variants were immobilized in concentrations of 0.035 μg/ml (peptide based assay) or 0.2 μg/ml (recombinant human FGFR2 protein based assay) in 10% Smart Block in PBST depending on the format and variants to be analyzed by incubation of 20 μl for one hour at 20-22° C. After one washing step using 50 μl PBST, 20 μl quadruplets of the antigen dilution series in 10% SmartBlock in PBST with a maximum concentration of 100 nM were added and incubated for 1 h at 20-22° C. and the washing step was repeated 3 times. For the detection of the biotinylated epitope peptide 20 μl of streptavidine/POD conjugate (# S5512, Sigma) in a 1:1000 dilution in 10% SmartBlock in PBST were applied for one hour at 20-22° C. For the detection of the recombinant FGFR2 protein 20 μl of anti-His/HRP conjugate (#71840, novagen) in a 1:10000 dilution in 10% SmartBlock in PBST were applied for one hour at 20-22° C. After 3 washing steps 20 μl of 10 μM amplex red substrate (# A12222, Invitrogen) in 50 mM Sodium hydrogen phosphate, pH 7.6, were added and the fluorescence signal was detected using a common fluorescence reader, e.g. Tecan M1000. EC50 values were evaluated by fitting the data (Sigmoida) dose-response, variable slope, bottom set to background; GraphPad Prism software).

[3] = biological target: T3, RPSFSLVEDTTLEPEG-Ttds-Lys(Biotin); assay: peptide binding ELISA, antibody captured by anti-human IgG Fc, biotinylated peptide titrated; against TPP-1403
Description: as §2
(§4) Briefly, in both ELISA formats MTP plates (384 well Maxisorp, Nunc) were coated with 20 μl, anti-human IgG Fc specific (#12136; sigma) at 2.2 μg/ml for 2.5 h at 37° C. in coating buffer (#121125 Candor Bioscience GmbH). […] Anti-FGFR2 variants were immobilized in concentrations of 0.035 μg/ml (peptide based assay) or 0.2 μg/ml (recombinant human FGFR2 protein based assay) in 10% Smart Block in PBST depending on the format and variants to be analyzed by incubation of 20 μl for one hour at 20-22° C. […] After 3 washing steps 20 μl of 10 μM amplex red substrate (# A12222, Invitrogen) in 50 mM Sodium hydrogen phosphate, pH 7.6, were added and the fluorescence signal was detected using a common fluorescence reader, e.g. Tecan M1000. […]

[4] = biological target: T4, recombinant human FGFR2 (Met 1-Glu 377) with C-terminal polyhistidine tag (human, UniProt P21802 22-377); assay: protein binding ELISA, antibody captured by anti-human IgG Fc, FGFR2-His titrated
T4 construct: The range is that of the expressed DNA and begins at Met 1; also called His-tagged FGFR2; recombinant human FGFR2-IIIc molecule
Description: as §2, §3

[5] = biological target: T4, recombinant human FGFR2 (Met 1-Glu 377) …; assay: protein binding ELISA; against TPP-1403
Description: as §2, §3

[6] = biological target: T4, recombinant human FGFR2 (Met 1-Glu 377) …; assay: protein binding ELISA; against TPP-1415
Description: as §2, §3

[7] = biological target: T3, RPSFSLVEDTTLEPEG-Ttds-Lys(Biotin); assay: peptide binding ELISA; against TPP-1415
Description: as §2, §4

[8] = biological target: T3, RPSFSLVEDTTLEPEG-Ttds-Lys(Biotin); assay: peptide ELISA, IgG titration, anti-mouse IgG (Fc specific) POD detection
[9] = biological target: T5, mutated human FGFR2 on AN3-CA cells (human, UniProt P21802 22-821); assay: FACS, 5 ug/ml, AN3CA cells
T5 construct: whole, on cells; also called AN3-CA (DSMZ-ACC 267)
Experimental: as §1

T1 sequence (P21802 other isoform, or with tags, fused parts or gaps limits assumed, change not shown): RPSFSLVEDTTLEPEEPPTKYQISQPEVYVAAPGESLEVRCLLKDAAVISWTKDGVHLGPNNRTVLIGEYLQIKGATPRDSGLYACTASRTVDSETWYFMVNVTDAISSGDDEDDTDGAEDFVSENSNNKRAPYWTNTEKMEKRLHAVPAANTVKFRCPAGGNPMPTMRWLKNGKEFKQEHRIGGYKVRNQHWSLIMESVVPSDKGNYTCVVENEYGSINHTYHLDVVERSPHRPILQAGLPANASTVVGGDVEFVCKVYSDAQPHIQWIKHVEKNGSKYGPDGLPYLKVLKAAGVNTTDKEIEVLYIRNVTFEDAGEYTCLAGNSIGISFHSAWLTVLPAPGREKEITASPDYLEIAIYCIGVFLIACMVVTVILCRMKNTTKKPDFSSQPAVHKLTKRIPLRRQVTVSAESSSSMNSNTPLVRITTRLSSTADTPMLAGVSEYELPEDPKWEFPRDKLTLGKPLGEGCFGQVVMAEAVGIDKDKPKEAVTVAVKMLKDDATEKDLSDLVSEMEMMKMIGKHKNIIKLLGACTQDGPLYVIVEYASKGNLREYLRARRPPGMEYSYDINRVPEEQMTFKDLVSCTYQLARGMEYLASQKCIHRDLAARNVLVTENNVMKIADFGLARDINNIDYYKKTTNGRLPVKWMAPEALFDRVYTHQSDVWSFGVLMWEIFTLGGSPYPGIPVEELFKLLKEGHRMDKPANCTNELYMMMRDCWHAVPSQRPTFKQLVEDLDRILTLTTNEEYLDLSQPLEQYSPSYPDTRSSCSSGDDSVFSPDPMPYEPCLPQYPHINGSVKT
T4 sequence (P21802 22-377 limits assumed): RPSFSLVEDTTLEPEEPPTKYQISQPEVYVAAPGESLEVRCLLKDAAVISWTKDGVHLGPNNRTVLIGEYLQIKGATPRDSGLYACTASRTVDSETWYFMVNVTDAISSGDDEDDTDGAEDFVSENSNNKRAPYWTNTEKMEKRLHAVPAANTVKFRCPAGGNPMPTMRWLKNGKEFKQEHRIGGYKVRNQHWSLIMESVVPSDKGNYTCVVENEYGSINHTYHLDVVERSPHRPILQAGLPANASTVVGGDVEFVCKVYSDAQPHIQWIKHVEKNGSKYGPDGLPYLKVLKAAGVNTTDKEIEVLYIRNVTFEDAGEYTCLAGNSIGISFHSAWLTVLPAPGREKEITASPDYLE
T5 sequence (P21802 other isoform, or with tags, fused parts or gaps limits assumed, change not shown): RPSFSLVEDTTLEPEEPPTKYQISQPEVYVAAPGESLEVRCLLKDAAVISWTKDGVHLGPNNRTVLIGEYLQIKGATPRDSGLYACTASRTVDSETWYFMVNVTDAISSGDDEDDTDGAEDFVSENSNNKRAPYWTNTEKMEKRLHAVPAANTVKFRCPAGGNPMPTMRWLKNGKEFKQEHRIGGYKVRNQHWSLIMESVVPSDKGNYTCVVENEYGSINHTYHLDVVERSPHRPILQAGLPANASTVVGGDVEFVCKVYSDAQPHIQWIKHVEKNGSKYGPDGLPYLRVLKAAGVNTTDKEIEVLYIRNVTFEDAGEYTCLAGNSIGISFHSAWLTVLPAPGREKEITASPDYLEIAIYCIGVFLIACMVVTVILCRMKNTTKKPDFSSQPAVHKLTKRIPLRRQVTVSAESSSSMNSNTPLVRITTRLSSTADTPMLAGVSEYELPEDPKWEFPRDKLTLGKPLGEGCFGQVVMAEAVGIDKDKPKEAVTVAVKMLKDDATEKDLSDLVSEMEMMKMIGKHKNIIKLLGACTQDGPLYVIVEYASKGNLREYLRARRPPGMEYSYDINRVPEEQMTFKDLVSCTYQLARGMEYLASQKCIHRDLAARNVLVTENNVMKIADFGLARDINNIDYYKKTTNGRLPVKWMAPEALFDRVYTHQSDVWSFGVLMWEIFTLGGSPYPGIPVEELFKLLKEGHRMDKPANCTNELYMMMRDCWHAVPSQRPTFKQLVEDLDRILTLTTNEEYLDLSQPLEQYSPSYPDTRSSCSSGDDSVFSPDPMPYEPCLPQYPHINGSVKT

B1: M054-D03-hIgG1 (antibody, V domains shown)
VH: EVQLLESGGGLVQPGGSLRLSCAASGFTFSNYGMHWVRQAPGKGLEWVAVISYDGSNKYYADSVKGRFTISRDNSKNTLYLQMNSLRAEDTAVYYCAKETNDVPFDYWGQGTLVTVSS
VL: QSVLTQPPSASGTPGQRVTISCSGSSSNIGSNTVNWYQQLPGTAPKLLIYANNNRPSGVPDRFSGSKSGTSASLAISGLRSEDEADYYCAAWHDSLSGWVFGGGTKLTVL
notes: Human IgG1
Geo Mean minus Geo Mean of secondary antibody alone (FACS) [1]: 100 to 1000 geomean
Geo Mean minus Geo Mean of secondary antibody alone (FACS) (rat FGFR2 on RUCA cells): 100 to 1000 geomean

B2: TPP-1397 (antibody, human IgG1, lambda, V domains shown)
VH: EVQLLESGGGLVQPGGSLRLSCAASGFTFSSYAMSWVRQAPGKGLEWVSAISKSGGSTFYADSVKGRFTISRDNSKNTLYLQMNSLRAEDTAVYYCARVRYIWGEGDWFDPWGQGTLVTVSS
VL: AQSVLTQPPSASGTPGQRVTISCSGSSSNIGENYVSWYQQLPGTAPKLLIYENYKRSSGVPDRFSGSKSGTSASLAISGLRSEDEADYYCAAWDDSLNSWVFGGGTKLTVLG
notes: Matured variant of M048-D01
EC50 [2]: 0.004 nM
fold EC50 reduction [3]: > 2300 fold
EC50 [4]: 0.2 nM
fold EC50 reduction [5]: 40 fold

B3: TPP-1408 (antibody, human IgG1, lambda, V domains shown)
VH: EVQLLESGGGLVQPGGSLRLSCAASGFTFSHSGMHWVRQAPGKGLEWVAVISYDGSNKYYADSVKGRFTISRDNSKNTLYLQMNSLRAEDTAVYYCAREQPVYDFEYWGQGTLVTVSS
VL: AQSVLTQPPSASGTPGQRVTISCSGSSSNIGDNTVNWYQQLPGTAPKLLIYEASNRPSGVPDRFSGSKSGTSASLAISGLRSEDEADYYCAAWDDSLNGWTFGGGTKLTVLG
notes: Matured variant of M047-D08
EC50 [2]: 2.5 nM
fold EC50 reduction [6]: 27 fold
fold EC50 reduction [7]: > 4 fold
fold signal [7]: 10 fold
EC50 [4]: 0.29 nM

B4: M048-D01-mIgG2a (antibody)
heavy: EVQLLESGGGLVQPGGSLRLSCAASGFTFSSYAMSWVRQAPGKGLEWVSAISGSGTSTYYADSVKGRFTISRDNSKNTLYLQMNSLRAEDTAVYYCARVRYNWNHGDWFDPWGQGTLVTVSSAKTTAPSVYPLAPVCGDTTGSSVTLGCLVKGYFPEPVTLTWNSGSLSSGVHTFPAVLQSDLYTLSSSVTVTSSTWPSQSITCNVAHPASSTKVDKKIEPRGPTIKPCPPCKCPAPNLLGGPSVFIFPPKIKDVLMISLSPIVTCVVVDVSEDDPDVQISWFVNNVEVHTAQTQTHREDYNSTLRVVSALPIQHQDWMSGKEFKCKVNNKDLPAPIERTISKPKGSVRAPQVYVLPPPEEEMTKKQVTLTCMVTDFMPEDIYVEWTNNGKTELNYKNTEPVLDSDGSYFMYSKLRVEKKNWVERNSYSCSVVHEGLHNHHTTKSFSRTPGK
VL: QSVLTQPPSASGTPGQRVTISCSGSSSNIGNNYVSWYQQLPGTAPKLLIYENYNRPAGVPDRFSGSKSGTSASLAISGLRSEDEADYYCSSWDDSLNYWVFGGGTKLTVL
notes: Murine IgG2a format of M048-D01
EC50 [8]: ≤ 1 nM

B5: M017-B02-hIgG1 (antibody, V domains shown)
VH: EVQLLESGGGLVQPGGSLRLSCAASGFTFRTSGMHWVRQAPGKGLEWVAVISYDGSNKYYADSVKGRFTISRDNSKNTLYLQMNSLRAEDTAVYYCARESPGYDFEYWGQGTLVTVSS
VL: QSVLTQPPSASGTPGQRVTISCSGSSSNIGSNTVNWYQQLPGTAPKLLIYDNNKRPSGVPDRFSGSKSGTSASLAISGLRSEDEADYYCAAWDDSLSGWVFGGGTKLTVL
notes: Human IgG1
Geo Mean minus Geo Mean of secondary antibody alone (FACS) [1]: 1000 to 10000 geomean
Geo Mean minus Geo Mean of secondary antibody alone (FACS) (rat FGFR2 on RUCA cells): 100 to 1000 geomean
Geo Mean minus Geo Mean of secondary antibody alone (FACS) [9]: 100 to 1000 geomean

B6: M021-H02-hIgG1 (antibody, V domains shown)
VH: EVQLLESGGGLVQPGGSLRLSCAASGFTFSNYGIHWVRQAPGKGLEWVAVISYDGSNKYYADSVKGRFTISRDNSKNTLYLQMNSLRAEDTAMYYCARDSSSAEDYWGQGTLVTVSS
VL: QSVLTQPPSASGTPGQRVTISCSGSSSNTGSNTVNWYQQLPGTAPKLLIYRNNQRPSGVPDRFSGSKSGTSASLAISGLRSEDEADYYCETWDSNTRGVVFGGGTKLTVL
notes: Human IgG1; also called M021-1-102-hIgG1; M021-1-102
Geo Mean minus Geo Mean of secondary antibody alone (FACS) [1]: 100 to 1000 geomean
Geo Mean minus Geo Mean of secondary antibody alone (FACS) (rat FGFR2 on RUCA cells): 100 to 1000 geomean

B7: M054-A05-hIgG1 (antibody, V domains shown)
VH: EVQLLESGGGLVQPGGSLRLSCAASGFTFSNYGMYWVRQAPGKGLEWVAVISYDGTNKYYVDSVKGRFTISRDNSKNTLYLQMNSLRAEDTAVYYCAKDLPKWGGFDSWGQGTLVTVSS
VL: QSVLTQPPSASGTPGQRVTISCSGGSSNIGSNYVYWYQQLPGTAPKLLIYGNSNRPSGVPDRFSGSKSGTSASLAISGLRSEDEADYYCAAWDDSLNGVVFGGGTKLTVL
notes: Human IgG1
Geo Mean minus Geo Mean of secondary antibody alone (FACS) [1]: 1000 to 10000 geomean
Geo Mean minus Geo Mean of secondary antibody alone (FACS) [9]: 100 to 1000 geomean
